Results published in patent US12723078 (University of Texas, dated 2026).
Positions count from the first letter of the chain named. Values belong to the binder of their own block, whether it stands above or below them.

Assays:
[1] = molecular target: T1, recombinant LILRB1 (human, UniProt Q8NHL6 24-461); assay: ELISA, coated recombinant LILRB1, antibody titration;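 note: serially diluted anti-LILRB1 antibodies incubated 60 min at 37 °C on plates coated with 50 ng/well recombinant protein, TMB colorimetric development read as absorbance at 450 nm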
T1 construct: LILRB1-Fc proteins were also made; also called LILRB1 recombinant proteins
Protocol: ELISA. LILRB1 recombinant proteins (50 ng/well, 100 μL per well) were coated on Corning 96-well ELISA plates at 37° C. for 4 hrs. Plates were blocked for 2 hrs at 37° C. with 5% non-fat milk. After washing with PBST, 100 μL of serial diluted anti-LILRB1 antibodies were added and incubated for 60 min at 37° C. […] Plates were washed again with PBST for another 5 times, then the immunoreactions were developed with TMB substrates (Sigma, Cat #T0440) and stopped by the addition of 2 M H_2SO_4 before the plate was read at 450 nm.

[2] = molecular target: T1, recombinant LILRB1; assay: BLI (Octet RED96), antibody on biosensor, recombinant LILRB1 in solution;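 note: Background-subtracted sensorgrams fitted with a one-to-one binding model, KD taken as koff over kon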
Protocol: Following a short baseline in kinetics buffer for 20 s, the loaded biosensors were exposed to solutions of recombinant LILRB1 in a range of concentrations (0-500 nM). After background was subtracted, data was fit to a 1:1 binding model to extract an association rate ($kon$) and dissociation rate ($koff$). The KD was calculated using the ratio $koff/kon$. […] All experiments were performed with shaking at 1,000 rpm. All raw data was processed using ForteBio Octet Data Analysis Software 9.0.

T1 sequence (Q8NHL6 24-461 limits assumed): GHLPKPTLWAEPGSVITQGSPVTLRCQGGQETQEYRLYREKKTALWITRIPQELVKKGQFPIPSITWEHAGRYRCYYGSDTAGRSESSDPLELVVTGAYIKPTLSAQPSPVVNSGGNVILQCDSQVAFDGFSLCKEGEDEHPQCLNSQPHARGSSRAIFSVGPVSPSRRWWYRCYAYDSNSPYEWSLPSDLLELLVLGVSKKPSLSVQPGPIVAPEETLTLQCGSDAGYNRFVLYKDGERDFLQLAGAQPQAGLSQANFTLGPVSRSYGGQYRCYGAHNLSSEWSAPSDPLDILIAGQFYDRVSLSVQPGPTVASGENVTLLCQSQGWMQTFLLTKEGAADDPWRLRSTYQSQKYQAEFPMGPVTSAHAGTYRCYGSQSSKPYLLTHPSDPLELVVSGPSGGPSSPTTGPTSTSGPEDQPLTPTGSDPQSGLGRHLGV

EC50 [1]: 0.0209 µg/mL
B1: B1-#10 (antibody, V domains shown)
VH: EQSVEESGGGLVKPEGSLTLTCKASGLDFSSSYWICWVRQAPGKGLEWIACIDTGSSGSTYYASWAKGRFTVSKTSSTTVSLQMTSLTAADTATYFCASTPNSLGYDLWGPGTLVTISS
VL: ELDLTQTPASVSAAVGGTVTIKCQASQNIVSNLAWYQQKPGQRPKLLIYYASTLASGVPSRFKGSGSGTEYTLTISDLECADAATYYCQNNAGIYGNYGHGFGGGTELEIK
notes: recombinant rabbit IgG

EC50 [1]: 0.0196 µg/mL
B2: B1-#19 (antibody, V domains shown)
VH: EQSVEESGGGLVKPEGSLTLTCKASGLDFSSSYWSCWVRQTPGRGLEWIGCIDVGSSGGSYYASWARGRFTVSKGSSTTVTLQMTSLTAADTATYFCASTTTNVFGYDLWGPGTLVTVSS
VL: ELDLTQTPASVSEPVGGTVTIKCQASQNIYNNLAWYQQKPGQPPKLLIYYASTLASGVPPRFSGSGSGTEYTLTISDLECDDAATYYCQNNAGIYGGYGHGFGGGTEVVVK
notes: recombinant rabbit IgG

EC50 [1]: 0.0178 µg/mL
B3: B1-#110 (antibody, V domains shown)
VH: QSLEESGGDLVKPEGSLTLTCTASGFSFSSSYWICWVRQAPGKGLEWIGCIYAGNSANTYYASWAKGRFTISKTSSTTVTLQLTSLTAADTATYFCASRNGGAPDGLNLWGPGTLVTISS
VL: ELDLTQTPASVEAAVGGTVTIKCQASLNINSWLAWYQQKPGQPPKLLISYTSSLASGVPSRFKGSGSGTEYTLTINDLECADAATYYCQTTYFGTNGGGFGGGTEVEIK
notes: recombinant rabbit IgG

EC50 [1]: 0.0132 µg/mL
B4: B1-#25 (antibody, V domains shown)
VH: EQSVKESGGGLVQPEGSLTLTCKVSGIDFNYYNYYYMCWVRQAPGKGLEWIGCMSTASANIYLASWAKGRFTISEASSTTVTLQMTSLTAADTATYFCAKSHGGDGGYGVVLWGPGTLVTISS
VL: ELDLTQTPFSVSAAVGGTVTIKCQASETISNRLAWYQQKPGQPPKLLIYSASTLESGVPSRFKGSGSGTEFTLTISDLECADAATYYCQSIRSSSGIVHPNTFGGGTEVEIK
notes: recombinant rabbit IgG

Kd [2]: 0.611 nM
koff [2]: 8.62e-05 s⁻¹
kon [2]: 141000 M⁻¹ s⁻¹
EC50 [1]: 0.0292 µg/mL
B5: B1-#22 (antibody, V domains shown)
VH: EQSLEESGGGLVKPGASLTLTCKASGFDFSSNDYMCWVRQAPGKGLEWIGCIYGGDGHTYYATWAKGRFTISKASSTTVTLQMTSLTAADTASYFCARGYSYGDTGYADAILTLDLWGPGTLVTVSS
VL: ELDLTQTPASVEAAVGGTVTIKCQASQTIGSYLSWYQQKPGQRPKLLIYEASKLASGVPSWFKGSGSGTEFTLTISDLECADAATYYCQSNYYRAGGNYGGAFGGGTEVEIK
notes: recombinant rabbit IgG

Kd [2]: 15.8 nM
koff [2]: 0.00506 s⁻¹
kon [2]: 320000 M⁻¹ s⁻¹
EC50 [1]: 0.0944 µg/mL
B6: B1-#41-1 (antibody, V domains shown)
VH: QSVKESGGDLVKPGASLTLTCTASGFSFSSSYWICWVRQAPGKGLEWIACIYAGSSGSTYYASWAKGRFTISKTSSTTVTLQMTSLTAADTATYFCARSTSGSYGAGLGLWGPGTLVTISS
VL: ELDMTQTASPVSGAVGGTVTIKCQASQNIYNNIGWYQQKPGQPPNLLIYGPSYLASGVPSRFKGSRSGTEYTLTISDLECADAATYYCQSDDWMSISPDIVFGGGTEVEIK
notes: recombinant rabbit IgG

EC50 [1]: 0.0182 µg/mL
B7: B1-#18 (antibody, V domains shown)
VH: EQSVKESGGGLVKPGGTLTLTCIVSGFSLSRYAVTWVRQAPGKGPEWIGYIDTSSGNKDYANWVNGRFTISKTSSTTVTLQMTSLTAADTATYFCARGFSMFKLWGPGTLVTISS
VL: ELVMTQTPSSVSAAVGGTVTISCQASQSVYNNNNLAWYQQKPGQPPKRLIYSASTLDSGVPSRFSGSGSGTQFTLTISDLECDDAATYYCAGGYTYNINIFGGGTEVEIK
notes: recombinant rabbit IgG

Kd [2]: 1.37 nM
koff [2]: 0.000262 s⁻¹
kon [2]: 192000 M⁻¹ s⁻¹
EC50 [1]: 0.00656 µg/mL
B8: B1-#173-2 (antibody, V domains shown)
VH: QSVEESGGDLVKPGASLTLTCTASGFDFSSNAYLCWVRQAPGKGLEWIGCIYDGTSGDTYYANWAKGRFTISRSSSTTVTLQMTSLTAADTATYFCARDTRSSNYYFNLWGPGTLVTISS
VL: ELVLTQTPSSTSAAVGGTVTINCQASQSVDNNKQLSWYQQKPGQPPKQLIYSASKLASGVPSRFKGSGSGTQFTLTISDLECDDAATYYCAGYYYSGSATDAWAFGGATEVEIN
notes: recombinant rabbit IgG

EC50 [1]: 0.0076 µg/mL
B9: B1-#125 (antibody, V domains shown)
VH: EQSLEESGGGLVQPEGSLTLTCTASGFSFTKNYYMCWVRQAPGKGLEWIGCIYAGSTNTFYASWAKGRFTISKASSTTVDLKMTSLTVADTATYFCARDFVSYLNLWGPGTLVTVSS
VL: ELDLTQTPSSSSAAVGGTVTINCQASQSVYNKNYLSWFQQKPGQPPKLLIYYASTLASGVPSRFKGSGSGTEFTLTISDVVCDDAATYYCAAYKGVSDDGISFGGGTEVEIK
notes: recombinant rabbit IgG

EC50 [1]: 0.151 µg/mL
B10: B1-#196-2 (antibody, V domains shown)
VH: B9 VH with E1Q, Q2E, S3Q, E5V, A24D
VL: ELDMTQTPSSTSAAVGGTVTIKCQASQSVYNNNQLSWFQQKPGQPPKRLIYGASTLESGVPSRFSGSGSGTQFTLTISDLECDDAATYYCQGAVSSDYYPFGGGTEVEIK
notes: recombinant rabbit IgG

EC50 [1]: 0.0159 µg/mL
B11: B1-#7 (antibody, V domains shown)
VH: EQSLEESGGGLVKPGASLTVTCAVSGFSLNSYAITWVRQAPGKGLEYIGYIDTGASITDYASWAKGRFTISKTSSTTVTLEMTSLTDADTATYFCARGFSMFKLWGPGTLVTISS
VL: ELDLTQTPSSVSAAVGGTVTISCQASQSVYGNNRLAWYHQKPGQPPKRLIYLASTLDSGVPSRFKGAGSGTQFTLTISDLECDDAATYYCAGGYAGNFNAFGGGTEVEIK
notes: recombinant rabbit IgG

EC50 [1]: 0.052 µg/mL
B12: B1-#115 (antibody, V domains shown)
VH: EQSVKESGGGLVQPEGSLTLTCTASGFSFSSSYWICWVRQAPGKGLEWIGCIATGTGSTYYANWVNGRFTMSKPSSTTVTLQMTTLTAADTATYFCARGGGYWSFSLWGPGTLVTISS
VL: ELVMTQTPSSVEAAVGGTVTNKCQASEDIYSNLAWYQQKPGQPPKLLIYGATTLASGVPSRFKGSGSGTEFTLTISDLECADAATYYCQAESNDVWAFGGGTEVVVK
notes: recombinant rabbit IgG

Kd [2]: 16.1 nM
koff [2]: 0.00145 s⁻¹
kon [2]: 89900 M⁻¹ s⁻¹
EC50 [1]: 0.13 µg/mL
B13: B1-#74 (antibody, V domains shown)
VH: QSLEESGGGLVKPGASLTLTCTASGFSLNRYYMCWVRQAPGKGLEWIGCIYSGSGSTYYASWAKGRFTISKTSSTTVTLQMTSLPAADTATYFCGRLDYRVIYAFNLWGPGTLVTISS
VL: ELVLTQTPASVSAAVGGTVTINCQASQSIGSGNLAWYQQKPGQPPKLLIYLASTLASGVPPRFKGSGSGTEFTLTISDLECDDAATYYCQYTYYGTTYDNAFGGGTELEIK
notes: recombinant rabbit IgG

Kd [2]: 0.619 nM
koff [2]: 5.59e-05 s⁻¹
kon [2]: 90300 M⁻¹ s⁻¹
EC50 [1]: 0.00224 µg/mL
B14: B1-#176 (antibody, V domains shown)
VH: QSLEESEGGLVKPGGTLTLTCTASGFSFSSSYCMCWVRQAPGKGLELIACIYTDSSGATYYASWAKGRFTISKSSSTTITLQMTSLTAADTATYFCARGWDYEDPGYTDTTYFSLWGPGTLVTVSS
VL: ELDLTQTPSSVEAAVGGTVTIKCQASQTIYTNLAWYQQKPGQPPNLLIYAASTLASGVSSRFKGSGSGTEFTLTISDLECADAATYYCQSYYGSSTTGNGFGGGTEVEIK
notes: recombinant rabbit IgG

EC50 [1]: 0.038 µg/mL
B15: B1-#98 (antibody, V domains shown)
VH: EQSLEESGGDLVKPEGSLTLTCTASGFSFSSSYWICWVRQAPGKGLEWIACVATGSGTTDYASWAKGRFTMSKTSSTTVTLQMTSLTVADTATYFCARIGAFYSFRLWGPGTLVTISS
VL: ELDLTQTPGSVEAAVGGTVTIKCQAGQSIYNYLSWYQQKPGQPPKLLIYSASTLESGVPPRFSGSGSGTEFTLTISDLECADAATYSCQNNYGIGSNYGPGFGGGTEVEIK
notes: recombinant rabbit IgG

Kd [2]: 8.54 nM
koff [2]: 0.000338 s⁻¹
kon [2]: 39600 M⁻¹ s⁻¹
EC50 [1]: 0.482 µg/mL
B16: B1-#93 (antibody, V domains shown)
VH: EQSVEESGGDLVKPGTSLTLTCTASGFSFSGNTICWVRQAPGKRPEWIACIYPSSTSITTYATWAKGRFTVSKTSSTTVTLQMTSLTAADTATYFCARRYAAFLTYGSGAFDPWGPGTLVTISS
VL: ELDLTQTPASVSAAVGGTVTINCQASESIGSALAWYQQKPGQPPKLLIYSASALASGVPSRFKGSGSGTEYTLTISDLECADAATYYCQSYYGSGTTALDTFGGGTEVEIK
notes: recombinant rabbit IgG

EC50 [1]: 0.00826 µg/mL
B17: B1-#226 (antibody, V domains shown)
VH: QEQLVESGGGLVQPEGSLTLTCTASGFSFSSRQYISWVRRAPGKGLEWIGAIVTVNNKVHYANWAKGRFTISEASSTTVTLQMTSLTAADTATYFCARWRTFGLWGPGTLVTVSS
VL: ELVLTQTPSSKSVAVGDTVTINCQASENVYSNNYTSWFQQKPGQPPKQLLYYAAYRASGVPSRFKGSGSGTEFTLSISDVVCDDAATYYCSGHKDYSDDGSTFGGGTEVVVK
notes: recombinant rabbit IgG

Kd [2]: 3.14 nM
koff [2]: 0.000237 s⁻¹
kon [2]: 75700 M⁻¹ s⁻¹
EC50 [1]: 0.011 µg/mL
B18: B1-#72-1 (antibody, V domains shown)
VH: QSVKESGGGLVQPEGSLALTCKASGIDLSNYWYMCWVRQAPGKGLEWIGCVATDSSRTHYATWAKGRFTVSKTSSTTVTLQMTSLTAADTATYFCARGSGASTNGVWWVMGDGMDLWGPGTLVTISS
VL: ELVMTQTPSSVSAAVGGTVTIKCQASPSISTYLSWYQQKPGQPPKRLINRASTLASGVPPRFKGSGAGTQFTLTISDLECADAATYYCQNNYHSGSSNGGGVAFGGGTEVEIK
notes: recombinant rabbit IgG

EC50 [1]: 0.04 µg/mL
B19: B1-#128 (antibody, V domains shown)
VH: RAVGKESGGDLVTLGGSLKLSCKASGIDLSNFYYMCWVRQAPGKGLEWIGCVASDSSRTHYATWPKGRFTISKTSSTTVTLQMTSLTAADTATYFCARGSGASTNGVWWVMGDGMDLWGPGTLVTVSS
VL: B18 VL with V3D, P27Q, T31S, N49Y, R50K, A55P, A67S, Q70E, V102F, E109Q
notes: recombinant rabbit IgG

Kd [2]: 0.505 nM
koff [2]: 5.63e-05 s⁻¹
kon [2]: 112000 M⁻¹ s⁻¹
EC50 [1]: 0.0119 µg/mL
B20: B1-#3 (antibody, V domains shown)
VH: QSLEESEGDLVKPEGSLTLTCKASGFDFSSDAMCWVRQAPGKGLEWIGCIYNGDEITDHASWAKGRFTISKTSPTTVTLQMTSLTVADTATYFCARAVYSDGGAGYPYMYGMDLWGPGTLVTVSS
VL: ELDMTQTPASVEAAVGGTVTIKCQASQNIYSYLVWYQQKPGQPPKLLISKASTLASGVSSRFKGSGSGTEFTLTINDLECADAATYYCQTNYFSSTSHFGVFTFGGGTELEIK
notes: recombinant rabbit IgG
